The nature of data set [1]: Biological activity of insulins and insulin derivatives. The note with it: specific activity of the active compound used in the formulation.
For data set [2] the following is noted: unmodified hormone, background statement; region of maximum insolubility; cited from earlier work.
The conditions of data set [3]: based on the amount of protein; cited from earlier work.

We go through three substances from US4608364A, “Pharmaceutical agent for the treatment of diabetes mellitus” (Hoechst Aktiengesellschaft, priority 1983, dated 1986).

As for “Porcine proinsulin: porcine proinsulin, dissolved component of Example 2”, the “biological activity per mg” value in data set [1] is 3.3 IU/mg. As for insulin [reference compound], in data set [2], the isoelectric point is 5.4. For “proinsulin: naturally occurring precursor of insulin, A and B chain linked by the C peptide”, the “inherent biological activity as fraction of the activity of insulin” value in data set [3] is “about 1/8”. In addition, the isoelectric point in data set [2] is reported as 5.4.
